# Measurements: paper PMC3751551
# Where a chain is given by its changes, count along the chain named. Names and notes keep the numbering of the source.
# B1: Rluc-BST2, Q10589 P40A; L41A; I42A (protein)
# chain: MASTSYDYCRVPMEDGDKRCKLLLGIGILVLLIIVILGVAAAIFTIKANSEACRDGLRAVMECRNVTHLLQQELTEAQKGFQDVEAQAATCNHTVMALMASLDAEKAQGQKKVEELEGEITTLNHKLQDASAEVERLRRENQVLSVRIADKKYYPSSQDSS
# B2: Rluc-BST2, Q10589 L22A; L23A; L24A (protein)
# chain: B1 chain with L22A, L23A, L24A, A40P, A41L, A42I
# B3: Rluc-BST2, Q10589 I28A; L29A; V30A (protein)
# chain: B1 chain with I28A, L29A, V30A, A40P, A41L, A42I
# B4: Rluc-BST2, Q10589 I46A; K47A (protein)
# chain: B1 chain with A40P, A41L, A42I, I46A, K47A
# B5: Rluc-BST2, Q10589 I34A; V35A; I36A (protein)
# chain: B1 chain with I34A, V35A, I36A, A40P, A41L, A42I
# B6: Rluc-BST2, Q10589 G25A; I26A; G27A (protein)
# chain: B1 chain with G25A, I26A, G27A, A40P, A41L, A42I
# B7: Rluc-BST2, Q10589 I43A; F44A; T45A (protein)
# chain: B1 chain with A40P, A41L, A42I, I43A, F44A, T45A
# B8: Rluc-BST2, Q10589 L37A; G38A; V39A (protein)
# chain: B1 chain with L37A, G38A, V39A, A40P, A41L, A42I
# B9: Rluc-BST2, Q10589 L31A; L32A; I33A (protein)
# chain: B1 chain with L31A, L32A, I33A, A40P, A41L, A42I
# B10: Rluc-BST2, Q10589 L37A (protein)
# chain: B1 chain with L37A, A40P, A41L, A42I
# B11: Rluc-BST2, Q10589 V35A (protein)
# chain: B1 chain with V35A, A40P, A41L, A42I
# B12: Rluc-BST2, Q10589 I42A (protein)
# chain: B1 chain with A40P, A41L
# B13: Rluc-BST2, Q10589 V39A (protein)
# chain: B1 chain with V39A, A40P, A41L, A42I
# B14: Rluc-BST2, Q10589 I36A (protein)
# chain: B1 chain with I36A, A40P, A41L, A42I
# B15: Rluc-BST2, Q10589 I34A (protein)
# chain: B1 chain with I34A, A40P, A41L, A42I
# B16: Rluc-BST2, Q10589 P40A (protein)
# chain: B1 chain with A41L, A42I
# B17: Rluc-BST2, Q10589 G38A (protein)
# chain: B1 chain with G38A, A40P, A41L, A42I
# B18: Rluc-BST2, Q10589 L41A (protein)
# chain: B1 chain with A40P, A42I
# Molecular target: Rluc-BST2 (UniProt Q10589)
# Experiment: BRET assay
# Conditions: HEK293T cells; parent: est. 1.4; read off a plot
row,Molecule,response
1,Vm-EYFP (from UniProt P05923) V21A,1.1
2,Vm-EYFP (from UniProt P05923) I26A; I27A; E28A,0.85
3,Vm-EYFP (from UniProt P05923) W22A,0.69
4,Vm-EYFP (from UniProt P05923) V20A,1.3
5,Vm-EYFP (from UniProt P05923) I15A,1.2
6,Vm-EYFP (from UniProt P05923) I17A; A18V; I19A,0.58
7,Vm-EYFP (from UniProt P05923) I19A,1.2
8,Vm-EYFP (from UniProt P05923) I26A,1.3
9,Vm-EYFP (from UniProt P05923) I17A,1.4
10,Vm-EYFP (from UniProt P05923) I27A,1.3
11,Vm-EYFP (from UniProt P05923) L11A,0.93
12,Vm-EYFP (from UniProt P05923) A14V; I15A; I16A,0.76
13,Vm-EYFP (from UniProt P05923) V13A,1.3
14,Vm-EYFP (from UniProt P05923) E28A,1.1
15,Vm-EYFP (from UniProt P05923) I5A; V6A; A7V,0.98
16,Vm-EYFP (from UniProt P05923) I16A,1.2
17,Vm-EYFP (from UniProt P05923) S23A; I24A; V25A,1.1
18,Vm-EYFP (from UniProt P05923) A18V,0.52
19,Vm-EYFP (from UniProt P05923) V12A,1.3
20,Vm-EYFP (from UniProt P05923) V20A; V21A; W22A,0.41
21,Vm-EYFP (from UniProt P05923) L11A; V12A; V13A,0.9
22,Vm-EYFP (from UniProt P05923) I8A; V9A; A10V,1.2
23,Vm-EYFP (from UniProt P05923) A14V,1.2

# Molecular target: T1, Vm-EYFP, P05923
# T1 chain: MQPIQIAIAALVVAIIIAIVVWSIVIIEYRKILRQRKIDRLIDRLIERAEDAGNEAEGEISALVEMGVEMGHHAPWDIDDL
# Experiment: BRET assay
# Conditions: chain shown with the change; HEK293T cells; forty-eight hours post-transfection; parent: est. 1.6; read off a plot
row,Molecule,response
1,B1,0.82
2,B2,1.3
3,B3,1.4
4,B4,1.6
5,B5,0.88
6,B6,1.7
7,B7,1.6
8,B8,0.95
9,B9,1.3

# Same assay, conditions: chain shown with the change; HEK293T cells; parent: est. 1.6; read off a plot
row,Molecule,response
1,B10,0.77
2,B11,1.5
3,B12,1.4
4,B13,1.6
5,B14,1.5
6,B15,1.1
7,B16,1.1
8,B17,1.5
9,B18,0.93
